Measured values reported in US12590951B2, “Culture medium and culture method for primary cells of intestinal cancer” (PRECEDO PHARMACEUTICALS CO., LTD, priority 2021, dated 2026).

B1: FGF10: medium additive from sino biological (protein, UniProt O15520 38-208, looked up)
Fibroblast growth factor 10: QALGQDMVSPEATNSSSSSFSSPSSAGRHVRSYNHLQGDVRWRKLFSFTKYFLKIEKNGKVSGTKKENCPYSILEITSVEIGVVAVKAINSNYYLAMNKKGKLYGSKEFNNDCKLKERIEENGYNTYASFNWQHNGRQMYVALNGKGAPRRGQKTRRKNTSAHFLPMVVHS
B2: KGF: medium additive from R&D (protein, UniProt P21781 32-194, looked up)
Fibroblast growth factor 7: CNDMTPEQMATNVNCSSPERHTRSYDYMEGGDIRVRRLFCRTQWYLRIDKRGKVKGTQEMKNNYNIMEIRTVAVGIVAIKGVESEFYLAMNKEGKLYAKKECNEDCNFKELILENHYNTYASAKWTHNGGEMFVALNQKGIPVRGKKTKKEQKTAHFLPMAIT
B3: Noggin: medium additive from R&D (protein, UniProt Q13253 28-232, looked up)
Noggin: QHYLHIRPAPSDNLPLVDLIEHPDPIFDPKEKDLNETLLRSLLGGHYDPGFMATSPPEDRPGGGGGAAGGAEDLAELDQLLRQRPSGAMPSEIKGLEFSEGLAQGKKQRLSKKLRRKLQMWLWSQTFCPVLYAWNDLGSRFWPRYVKVGSCFSKRSCSVPEGMVCKPSKSVHLTVLRWRCQRRGGQRCGWIPIQYPIISECKCSC
B4: IL-22: medium additive from Peprotech (protein, UniProt Q9GZX6 34-179, looked up)
Interleukin-22: APISSHCRLDKSNFQQPYITNRTFMLAKEASLADNNTDVRLIGEKLFHGVSMSERCYLMKQVLNFTLEEVLFPQSDRFQPYMQEVVPFLARLSNRLSTCHIEGDDLHIQRNVQKLKDTVKKLGESGEIKAIGELDLLFMSLRNACI
B5: R-spondin1: medium additive, R-spondin family protein from R&D (protein, UniProt Q2MKA7 21-263, looked up)
R-spondin-1: SRGIKGKRQRRISAEGSQACAKGCELCSEVNGCLKCSPKLFILLERNDIRQVGVCLPSCPPGYFDARNPDMNKCIKCKIEHCEACFSHNFCTKCKEGLYLHKGRCYPACPEGSSAANGTMECSSPAQCEMSEWSPWGPCSKKQQLCGFRRGSEERTRRVLHAPVGDHAACSDTKETRRCTVRRVPCPEGQKRRKGGQGRRENANRNLARKESKEAGAGSRRRKGQQQQQQQGTVGPLTSAGPA

System: primary cells of intestinal cancer
Test: Effect of single additives in Basic Medium on proliferation of primary cells of intestinal cancer (cell count)
Format: cell-based, human
Set-up: key: +: compared with the Basic Medium, the medium added with the additive(s) has the effect of promoting the proliferation of primary cells of intestinal cancer isolated from intestinal cancer tissue in at least two cases; −: the medium added with the additive(s) has the effect of inhibiting the proliferation of primary cells of intestinal cancer isolated from intestinal cancer tissue in at least one case; ∘: the medium added with the additive(s) has no significant effect on the proliferation of primary cells of intestinal cancer isolated from intestinal cancer tissue in at least two cases
Details: additive at the final concentration in Basic Medium; samples OE0042 and OE(E)003; 7-10 days; compared with Basic Medium
Protocol: First, Basic Medium was prepared. The formulation of Basic Medium is: DMEM/F12 medium (purchased from Corning)+5 μM Y27632 (purchased from MCE)+5% (v/v) fetal bovine serum (purchased from Excell Bio)+100 μg/mL Primocin (purchased from InvivoGen, 0.2% (v/v), the concentration of commercial product is 50 mg/ml).
Different types of additives (see Table 1) were added to the Basic Medium to prepare the culture mediums for primary cells of intestinal cancer containing different components.
The culture mediums of different components as shown in Table 1 were added into a 48-well plate at a volume of 1 mL/well. Primary cells of intestinal cancer isolated from two cases of intestinal cancer tissues (numbered OE0042 and OE(E)003) according to the above step (2) were inoculated into the 48-well culture plate at a cell density of 3×10^4 cells/well, and were cultured at 37° C., under 5% CO2 concentration. After culturing for 7-10 days, when the cells grew to 85%, the culture medium was discarded, and 100 μL/well of 0.05% trypsin (purchased from Gibco) was used to rinse the cells once. After the trypsin was removed, 200 μL of 0.05% trypsin was added to each well. The plate was then placed in a 37° C., 5% CO2 incubator for 10 minutes, and the cells were observed under a microscope (CNOPTEC, BDS400), showing that the cells had completely digested. 300 μL of DMEM/F12 medium containing 10% serum (Excell Bio, FND500) was added to stop the digestion. 20 μL of the resultant was added into a cell counting plate (Countstar, specification: 50 pieces/box), and the total number of cells was counted with a cell counter (Countstar, IC1000). Specifically, Basic Medium without any additives was used as an experimental control, and the experimental results are shown in Table 1.

| Molecule | Level of promoting cell proliferation |
| --- | --- |
| B1 | − |
| B2 | ∘ |
| B3 | ∘ |
| B4 | − |
| B5 | ∘ |
